Assay results taken from patent US20260265385A1 (ANAPTYSBIO, published 2026).

T1: human IL-2Rβ (CD122), full-length, on cells (human, UniProt P14784 27-551)
T1 construct: whole, on cells; also called human IL-2Rβγ; human IL-2βγ
T1 sequence (looked up): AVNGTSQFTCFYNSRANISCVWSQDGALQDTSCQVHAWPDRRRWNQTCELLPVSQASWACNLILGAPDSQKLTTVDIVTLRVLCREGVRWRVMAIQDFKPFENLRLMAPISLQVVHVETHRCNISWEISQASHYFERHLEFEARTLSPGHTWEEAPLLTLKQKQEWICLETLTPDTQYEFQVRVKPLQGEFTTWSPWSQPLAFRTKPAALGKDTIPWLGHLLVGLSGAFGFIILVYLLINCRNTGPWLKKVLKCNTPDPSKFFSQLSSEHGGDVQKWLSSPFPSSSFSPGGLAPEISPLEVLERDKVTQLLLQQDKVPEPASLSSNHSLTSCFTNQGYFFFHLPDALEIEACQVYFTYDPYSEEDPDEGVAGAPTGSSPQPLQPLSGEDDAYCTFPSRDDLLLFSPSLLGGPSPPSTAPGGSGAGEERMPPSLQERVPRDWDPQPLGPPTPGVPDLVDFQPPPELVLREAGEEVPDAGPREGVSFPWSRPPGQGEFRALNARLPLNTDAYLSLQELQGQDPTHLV

T2: cynomolgus IL-2Rβ (CD122), full-length, on cells (cynomolgus, UniProt Q38J85 27-551)
T2 construct: whole, on cells; Co-expressed with full-length cynomolgus IL-2Rγ on CHO-K1 cells; also called cynomolgus IL-2Rβγ; cyno IL-2βγ
T2 sequence (looked up): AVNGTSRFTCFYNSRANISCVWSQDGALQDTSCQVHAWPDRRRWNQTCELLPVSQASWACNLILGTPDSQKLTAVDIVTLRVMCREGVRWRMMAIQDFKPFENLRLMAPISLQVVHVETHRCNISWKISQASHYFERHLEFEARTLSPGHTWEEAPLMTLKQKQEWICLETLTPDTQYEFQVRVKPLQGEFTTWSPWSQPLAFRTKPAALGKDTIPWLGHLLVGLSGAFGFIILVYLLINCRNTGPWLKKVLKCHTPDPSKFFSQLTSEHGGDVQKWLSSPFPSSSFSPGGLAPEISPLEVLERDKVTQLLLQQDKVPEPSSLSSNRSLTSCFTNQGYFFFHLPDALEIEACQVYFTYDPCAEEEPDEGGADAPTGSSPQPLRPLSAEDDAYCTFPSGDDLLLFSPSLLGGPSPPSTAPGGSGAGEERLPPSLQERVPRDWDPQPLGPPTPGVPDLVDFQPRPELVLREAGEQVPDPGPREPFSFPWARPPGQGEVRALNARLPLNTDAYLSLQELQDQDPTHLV

T3: recombinant cynomolgus IL-2Rβ (extracellular domain, Ala1-Thr215) (cynomolgus, UniProt Q38J85 27-240)
T3 construct: extracellular domain; Analyte in SPR; also called cynomolgus LL-2Rβ; Cyno IL-2RB
T3 sequence (looked up): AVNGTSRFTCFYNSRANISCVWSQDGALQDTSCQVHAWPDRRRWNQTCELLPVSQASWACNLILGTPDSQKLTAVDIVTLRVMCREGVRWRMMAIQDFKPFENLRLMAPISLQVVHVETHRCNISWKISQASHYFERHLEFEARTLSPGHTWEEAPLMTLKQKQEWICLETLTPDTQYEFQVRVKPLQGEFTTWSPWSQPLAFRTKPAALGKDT

T4: recombinant human IL-2Rβ (extracellular domain, Ala1-Thr215) (human, UniProt P14784 27-240)
T4 construct: extracellular domain; Analyte in SPR; Ala1-Thr215 is counted on the mature protein; also called human LL-2Rβ; Human IL-2RB
T4 sequence (looked up): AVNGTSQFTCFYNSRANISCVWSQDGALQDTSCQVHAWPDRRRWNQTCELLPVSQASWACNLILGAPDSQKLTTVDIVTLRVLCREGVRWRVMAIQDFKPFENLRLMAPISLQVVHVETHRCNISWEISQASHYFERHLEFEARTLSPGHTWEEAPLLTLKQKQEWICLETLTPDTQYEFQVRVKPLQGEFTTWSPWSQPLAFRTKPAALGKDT


Experiments:
[1] = target: T1, human IL-2Rβ (CD122), full-length, on …; assay: flow cytometry on CHO-K1 cells expressing human IL-2Rβ and IL-2Rγ (panel 'Cell Binding human IL-2Rbg CHO'); unit taken from the axis 'Antibody Concentration nM'
Experimental: (§1) CHO-K1 cells stably expressing either full-length human or cyno IL-2Rβ and IL-2Rγ cultured in the log phase of growth were harvested with Accutase solution, resuspended in FACS buffer, and plated at 100,000 cells/well in a 96 well plate. The concentrations indicated in FIG. 5 of antibodies starting at 100 nM and diluted 1:3 were incubated with the cells for 45 minutes on a plate shaker at4° C. After washing, cells were incubated with goat anti-human kappa DyL650 secondary antibody for 20 minutes on a plate shaker at4° C. Cells were washed again and analyzed on a FACSArray flow cytometer. Data were analyzed using Novoexpress and GraphPad Prism software.

[2] = target: T2, cynomolgus IL-2Rβ (CD122), full-length, …; assay: flow cytometry on CHO-K1 cells expressing cynomolgus IL-2Rβ and IL-2Rγ (panel 'Cell Binding cyno IL-2Rbg CHO'); unit taken from the axis 'Antibody Concentration nM'
Experimental: as §1

[3] = target: T3, recombinant cynomolgus IL-2Rβ …; assay: SPR, antibody captured on Protein A chip
Summary of the method: (§2)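 Antibodies captured on a Protein A chip (0.5 μg/mL, 60 s), then exposed to IL-2Rβ extracellular domain (Ala1-Thr215) at about 0.4–11 nM; 300 s association, 1200 s dissociation. On- and off-rates and KD from a global 1:1 binding fit.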

[4] = target: T4, recombinant human IL-2Rβ (extracellular …); assay: SPR, antibody captured on Protein A chip
Summary of the method: as §2

[5] = target: T1, human IL-2Rβ (CD122), full-length, on …; assay: flow cytometry competition: antibody titrated against recombinant IL-15 (2 nM) binding to HEK293 cells expressing human IL-2Rβ and IL-2Rγ
Experimental: (§3) HEK293 cells stably transfected with human IL-2Rβ and IL-2Rγ were plated at 100,000 cells/well in a 96 well plate. Antibodies were titrated at the concentrations indicated in FIG. 8 starting at 100 nM and diluted 1:3, and added to the cells. Recombinant IL-2 (5 nM) or recombinant IL-15 (2 nM) were also added to the cells. Cells were incubated for 30 minutes on a plate shaker at 4° C. Cells were washed and then analyzed on a flow cytometer, and data were analyzed using Novoexpress and GraphPad Prism software.

[6] = target: T1, human IL-2Rβ (CD122), full-length, on …; assay: flow cytometry competition: antibody titrated against recombinant IL-2 (5 nM) binding to HEK293 cells expressing human IL-2Rβ and IL-2Rγ
Experimental: as §3

[7] = target: T1, human IL-2Rβ (CD122), full-length, on …; assay: flow cytometry on CHO-K1 cells expressing human IL-2Rβ and IL-2Rγ
Experimental: (§4) CHO-K1 cells stably expressing full-length human or cynomolgus IL-2Rβ and IL-2Rγ cultured in the log phase of growth were harvested with Accutase solution, resuspended in FACS buffer, and plated at 100,000 cells/well in a 96-well plate. The concentrations of antibodies indicated in FIGS. 1 and 2 starting at 100 nM and diluted 1:3 were incubated with the cells for 45 minutes on a plate shaker at 4° C. After washing, the cells were incubated with goat-anti-human kappa DyL650 secondary antibody for 20 minutes on a plate shaker at 4° C. Cells were washed again and analyzed on a FACSArray flow cytometer. Data were analyzed using Novoexpress and GraphPad Prism software. Table 3 lists anti-CD122 chimeric antibody binding characteristics: affinity to human and cyno CD122 protein (KD, measured by SPR assay), ability to block IL-2 (SPR assay), and binding EC50 to cell-expressed human and cyno CD122/CD132 (cell-based receptor binding assay).

[8] = target: T2, cynomolgus IL-2Rβ (CD122), full-length, …; assay: flow cytometry on CHO-K1 cells expressing cynomolgus IL-2Rβ and IL-2Rγ
Experimental: as §4

[9] = target: T3, recombinant cynomolgus IL-2Rβ …; assay: SPR
[10] = target: T4, recombinant human IL-2Rβ (extracellular …); assay: SPR

| EC50 [1] | EC50 [2] | Kd [3] | Kd [4] | IC50 (read off the curve) [5] | IC50 (read off the curve) [6] | EC50 [7] | EC50 [8] | Kd [9] | Kd [10] | Binder |
| --- | --- | --- | --- | --- | --- | --- | --- | --- | --- | --- |
| 0.105 nM | 0.103 nM | 0.0715 nM | 0.0945 nM |  |  |  |  |  |  | APE15148 (antibody, V domains shown, M6-p1625 series) VH: QVQLVQSGAEVKKPGASVKVSCKASGYTFSRYWIQWVRQAPGQGLEWMGEILPGSGSINHNEKFQGRVTMTRDTSTSTVYMELSSLRSEDTAVYYCTRHYGSFDYWGQGTTVTVSS VL: DIQMTQSPSSLSASVGDRVTITCKASQNVGTDVAWYQQKPGKAPKSLIYSASYRYSGVPSRFSGSGSGTDFTLTISSLQPEDFATYFCHQYESYPFTFGQGTKLEIKR |
| 0.138 nM | 0.18 nM | 0.0102 nM | 0.0217 nM |  |  |  |  |  |  | APE15140 (antibody, V domains shown, M10-1275 series) VH: EVQLVQSGAEVKKPGATVKISCKVSGFNFKESLIHWVQQAPGKGLEWMGWIDNEAGETEYAPGFQDRVTITADTSTDTAYMELSSLRSEDTAVYYCARGGPWFLSYWGQGTTVTVSS VL: EIVMTQSPATLSVSPGERATLSCRASQIISNNLHWYQQKPGQAPRLLIIYGLQSISGIPARFSGSRSGTEFTLTISSLQSEDFAVYYCQQSNNWPWTFGQGTKLEIKR |
| 0.308 nM | 0.333 nM | 0.0144 nM | 0.0995 nM |  |  |  |  |  |  | APE15169 (antibody, V domains shown, M10-1275 series) VH: EVQLVQSGAEVKKPGATVKISCKVSGFNFKESLIHWVQQAPGKGLEWMGWIDNEAGETEYAPGFQDRVTITADTSTDTAYMELSSLRSEDTAVYYCARGGPWFLSYWGQGTTVTVSS VL: EIVMTQSPATLSVSPGERATLSCRASQIISNNLHWYQQKPGQAPRLLIIYGLQSISGIPARFSGSRSGTEFTLTISSLQSEDFAVYFCQQSNNWPYTFGQGTKLEIKR |
| 0.139 nM | 0.146 nM | 0.00487 nM | 0.0128 nM | ~0.4 nM | ~0.4 nM |  |  |  |  | APE15170 (antibody, M10-1275 series) heavy: not shown light: EIVMTQSPATLSVSPGERATLSCRASQIISNNLHWYQQKPGQAPRLLIIYGLQSISGIPARFSGSRSGTEFTLTISSLQSEDFAVYFCQQSNNFPWTFGQGTKLEIKRTVAAPSVFIFPPSDEQLKSGTASVVCLLNNFYPREAKVQWKVDNALQSGNSQESVTEQDSKDSTYSLSSTLTLSKADYEKHKVYACEVTHQGLSSPVTKSFNRGEC |
|  |  | 0.00415 nM | 0.0107 nM |  |  |  |  |  |  | APE15446 (antibody, M10-1275 series) heavy: not shown light: EIVMTQSPATLSVSPGERATLSCRASQIISNNLHWYQQKPGQAPRLLIIYGLQSISGIPARFSGSRSGTEFTLTISSLQSEDFAVYFCQQSNNFPWTFGQGTKLEIKRTVAAPSVFIFPPSDEQLKSGTASVVCLLNNFYPREAKVQWKVDNALQSGNSQESVTEQDSKDSTYSLSSTLTLSKADYEKHKVYACEVTHQGLSSPVTKSFNRGEC |
| 0.147 nM | 0.163 nM | 0.0105 nM | 0.0222 nM |  |  |  |  |  |  | APE15142 (antibody, V domains shown, M10-1275 series) VH: EVQLVQSGAEVKKPGATVKISCKVSGFNFKYSLIHWVQQAPGKGLEWMGWIDNEAGETEYAPGFQDRVTITADTSTDTAYMELSSLRSEDTAVYYCARGGPWFLSYWGQGTTVTVSS VL: EIVMTQSPATLSVSPGERATLSCRASQIISNNLHWYQQKPGQAPRLLIIYGLQSISGIPARFSGSRSGTEFTLTISSLQSEDFAVYYCQQSNNWPWTFGQGTKLEIKR |
|  |  | 0.0707 nM | 0.0557 nM | ~0.05 nM | ~0.08 nM |  |  |  |  | APE15295 (antibody, M6-p1625 series) heavy: not shown light: DIQMTQSPSSLSASVGDRVTITCKASQNVGTDVAWYQQKPGKAPKSLIYSASYRYSGVPSRFSGSGSGTDFTLTISSLQPEDFATYFCHQYESYPFTFGQGTKLEIKRTVAAPSVFIFPPSDEQLKSGTASVVCLLNNFYPREAKVQWKVDNALQSGNSQESVTEQDSKDSTYSLSSTLTLSKADYEKHKVYACEVTHQGLSSPVTKSFNRGEC |
|  |  | 0.02 nM | 0.08 nM |  |  | 0.174 nM | 0.0876 nM | ~0.02 nM | ~0.08 nM | APE12705 (antibody, V domains shown, M10-1275 series; human kappa detected by the secondary antibody; also called APE 12705.02; M10-1275) VH: DVQLQQSGAELARPGASVKLSCTVSGFNFKDSLMHWVTQGPERGLRWIGWIDSENGETEYAPGFQDKATITADTSSSTVYLHLSSLTSEDTAIYYCARGGPWFLSYWGPGTTLTVSS VL: DIVLTQTPATLSVTPGDSVSLSCRASQIISNNLHWYQQKSHESPRLLIIYGLQSISGIPYRFSGRRSGTDFTLNINSVEIEDFGMYFCQQSNNWPWTFGGGTKLDIRR |
